According to the supplement of paper PMC9112550, “Optimization of the antimicrobial peptide Bac7 by deep mutational scanning” (BMC Biology, 2022):

Test system: Escherichia coli TOP10
Test: shrunken log2 fold change of peptide-encoding DNA abundance (4.5 h post-induction vs induction); higher = less antimicrobial activity (less host growth inhibition)
Conditions: time post-induction: 4.5 h; library: site-saturation at positions 5, 18, 19, 20
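Also: peptides expressed intracellularly from a pBAD plasmid library in pooled LB shake-flask culture, induced with 0.3% L-arabinose, DNA abundance read by NGS, three biological replicates, DESeq2 with apeglm shrinkage.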

Sequence	shrunken log2 fold change
RRIRDRPPRLPRPRPRPVVIPRP	2.82
RRIRDRPPRLPRPRPRPVVSPRP	0.0706
RRIRDRPPRLPRPRPRPVWDPRP	0.107
RRIRDRPPRLPRPRPRPVWEPRP	0.0337
RRIRDRPPRLPRPRPRPVWNPRP	0.00745
RRIRDRPPRLPRPRPRPVYHPRP	-0.0857
RRIRDRPPRLPRPRPRPVYIPRP	-0.497
RRIRDRPPRLPRPRPRPWCHPRP	-0.407
RRIRDRPPRLPRPRPRPWCVPRP	0.083
RRIRDRPPRLPRPRPRPWDIPRP	-0.0043
RRIRDRPPRLPRPRPRPWDMPRP	-0.133
RRIRDRPPRLPRPRPRPWEAPRP	-0.0176
RRIRDRPPRLPRPRPRPWFPPRP	-0.234
RRIRDRPPRLPRPRPRPWGMPRP	-0.165
RRIRDRPPRLPRPRPRPWKCPRP	0.118
RRIRDRPPRLPRPRPRPWKYPRP	-0.331
RRIRDRPPRLPRPRPRPWMDPRP	-0.0272
RRIRDRPPRLPRPRPRPWMNPRP	-0.15
RRIRDRPPRLPRPRPRPWPHPRP	-0.00987
RRIRDRPPRLPRPRPRPWPNPRP	0.0619
RRIRDRPPRLPRPRPRPWREPRP	0.00581
RRIRDRPPRLPRPRPRPWRLPRP	-0.264

Sequence	shrunken log2 fold change
RRIRDRPPRLPRPRPRPWRSPRP	0.105
RRIRDRPPRLPRPRPRPWSSPRP	0.0046
RRIRDRPPRLPRPRPRPWTPPRP	-0.0489
RRIRDRPPRLPRPRPRPWWEPRP	0.186
RRIRDRPPRLPRPRPRPWYRPRP	-0.0745
RRIRDRPPRLPRPRPRPWYTPRP	-0.0848
RRIRDRPPRLPRPRPRPYAMPRP	0.168
RRIRDRPPRLPRPRPRPYCFPRP	-0.744
RRIRDRPPRLPRPRPRPYCGPRP	0.0637
RRIRDRPPRLPRPRPRPYCPPRP	-1.1
RRIRDRPPRLPRPRPRPYEQPRP	-0.0135
RRIRDRPPRLPRPRPRPYGLPRP	-0.0553
RRIRDRPPRLPRPRPRPYHMPRP	-0.00968
RRIRDRPPRLPRPRPRPYLAPRP	-0.0552
RRIRDRPPRLPRPRPRPYMMPRP	-0.297
RRIRDRPPRLPRPRPRPYNIPRP	-0.529
RRIRDRPPRLPRPRPRPYNKPRP	-0.398
RRIRDRPPRLPRPRPRPYPKPRP	-0.143
RRIRDRPPRLPRPRPRPYQQPRP	-0.184
RRIRDRPPRLPRPRPRPYSGPRP	-0.035
RRIRDRPPRLPRPRPRPYSHPRP	-0.471
RRIRDRPPRLPRPRPRPYSNPRP	-0.045

Sequence	shrunken log2 fold change
RRIRDRPPRLPRPRPRPYTAPRP	0.0362
RRIRDRPPRLPRPRPRPYWQPRP	-0.548
RRIRDRPPRLPRPRPRPYYGPRP	0.127
RRIRDRPPRLPRPRPRPYYPPRP	-0.248
RRIRDRPPRLPRPRPRPYYVPRP	0.0365
RRIRERPPRLPRPRPRPAFPPRP	0.295
RRIRERPPRLPRPRPRPAGQPRP	-0.195
RRIRERPPRLPRPRPRPAIVPRP	0.00833
RRIRERPPRLPRPRPRPAKDPRP	-0.284
RRIRERPPRLPRPRPRPAKKPRP	0.00764
RRIRERPPRLPRPRPRPAKMPRP	-0.194
RRIRERPPRLPRPRPRPAKTPRP	-0.244
RRIRERPPRLPRPRPRPALLPRP	-0.23
RRIRERPPRLPRPRPRPAMLPRP	-0.155
RRIRERPPRLPRPRPRPAMTPRP	0.0328
RRIRERPPRLPRPRPRPANPPRP	-0.0315
RRIRERPPRLPRPRPRPANRPRP	0.111
RRIRERPPRLPRPRPRPANTPRP	1.45
RRIRERPPRLPRPRPRPAQLPRP	-0.124
RRIRERPPRLPRPRPRPAQPPRP	0.0203
RRIRERPPRLPRPRPRPARSPRP	0.0919
RRIRERPPRLPRPRPRPASRPRP	0.0348

Sequence	shrunken log2 fold change
RRIRERPPRLPRPRPRPASSPRP	0.0151
RRIRERPPRLPRPRPRPATSPRP	0.0131
RRIRERPPRLPRPRPRPAVLPRP	0.034
RRIRERPPRLPRPRPRPAVSPRP	0.0433
RRIRERPPRLPRPRPRPAVYPRP	-0.221
RRIRERPPRLPRPRPRPAWCPRP	0.238
RRIRERPPRLPRPRPRPAWFPRP	0.187
RRIRERPPRLPRPRPRPAYHPRP	-0.223
RRIRERPPRLPRPRPRPCFTPRP	-0.453
RRIRERPPRLPRPRPRPCFVPRP	-0.151
RRIRERPPRLPRPRPRPCGEPRP	-0.116
RRIRERPPRLPRPRPRPCHKPRP	-0.154
RRIRERPPRLPRPRPRPCLIPRP	-0.0716
RRIRERPPRLPRPRPRPCLTPRP	-0.0208
RRIRERPPRLPRPRPRPCMSPRP	-0.00711
RRIRERPPRLPRPRPRPCPFPRP	-1.04
RRIRERPPRLPRPRPRPCQKPRP	-0.0135
RRIRERPPRLPRPRPRPCRAPRP	-0.0474
RRIRERPPRLPRPRPRPCRCPRP	0.00968
RRIRERPPRLPRPRPRPCRQPRP	-0.157
RRIRERPPRLPRPRPRPCTTPRP	-0.172
RRIRERPPRLPRPRPRPCVTPRP	-0.322

Sequence	shrunken log2 fold change
RRIRERPPRLPRPRPRPCYCPRP	-0.539
RRIRERPPRLPRPRPRPCYFPRP	-0.917
RRIRERPPRLPRPRPRPDAEPRP	0.36
RRIRERPPRLPRPRPRPDATPRP	0.645
RRIRERPPRLPRPRPRPDCTPRP	0.104
RRIRERPPRLPRPRPRPDCWPRP	-0.0875
RRIRERPPRLPRPRPRPDDDPRP	0.00371
RRIRERPPRLPRPRPRPDDGPRP	-0.269
RRIRERPPRLPRPRPRPDEEPRP	-0.142
RRIRERPPRLPRPRPRPDGQPRP	-0.388
RRIRERPPRLPRPRPRPDGVPRP	-0.162
RRIRERPPRLPRPRPRPDGYPRP	0.0107
RRIRERPPRLPRPRPRPDIQPRP	3.69
RRIRERPPRLPRPRPRPDKYPRP	-0.449
RRIRERPPRLPRPRPRPDLMPRP	0.0435
RRIRERPPRLPRPRPRPDMLPRP	-0.166
RRIRERPPRLPRPRPRPDMQPRP	-0.184
RRIRERPPRLPRPRPRPDNWPRP	-0.103
RRIRERPPRLPRPRPRPDNYPRP	-0.0933
RRIRERPPRLPRPRPRPDPCPRP	-0.119
RRIRERPPRLPRPRPRPDPNPRP	0.0422
